Results: paper PMC9029707, “Crystal Structure of an SSB Protein from Salmonella enterica and Its Inhibition by Flavanonol Taxifolin” (International Journal of Molecular Sciences, 2022)

Columns and labels:
[1] = biological target: T1, SeSSB (single-stranded DNA-binding protein, STM_4256) (Salmonella enterica, UniProt P0A2F6); test: EMSA, inhibition of binding of purified SeSSB ([…]) to biotinylated ssDNA dT35
T1 construct: gene ssb; His-tagged SeSSB, 176 residues (pET21b-SeSSB)

[2] = biological target: T2, SeSSB (single-stranded DNA-binding protein) (Salmonella enterica serovar Typhimurium …, UniProt P0A2F6 1-176); test: EMSA; two complexes; SeSSB 0-4000 nM; dA EMSA: 20 mM Tris-HCl pH 8.0, 100 mM NaCl, 25 C, 30 min, 1.7 nM DNA; dT35 EMSA: 40 mM Tris-HCl pH 7.5, 50 mM NaCl, 37 C, 60 min, 30 fmol/uL DNA; 8% native PAGE in TBE; conditions: protein: recombinant; tags: His-tag (pET21b); chain copies: 4; label: 5'-32P (T4 PNK); single strand
[3] = biological target: T2, SeSSB (single-stranded DNA-binding …); test: EMSA; single complex; SeSSB 0-4000 nM; dA EMSA: 20 mM Tris-HCl pH 8.0, 100 mM NaCl, 25 C, 30 min, 1.7 nM DNA; dT35 EMSA: 40 mM Tris-HCl pH 7.5, 50 mM NaCl, 37 C, 60 min, 30 fmol/uL DNA; 8% native PAGE in TBE; conditions: protein: recombinant; tags: His-tag (pET21b); chain copies: 4; label: 5'-32P (T4 PNK); single strand
[4] = biological target: T2, SeSSB (single-stranded DNA-binding …); test: EMSA; two complexes at higher SeSSB (0-4000 nM); dA EMSA: 20 mM Tris-HCl pH 8.0, 100 mM NaCl, 25 C, 30 min, 1.7 nM DNA; dT35 EMSA: 40 mM Tris-HCl pH 7.5, 50 mM NaCl, 37 C, 60 min, 30 fmol/uL DNA; 8% native PAGE in TBE; conditions: protein: recombinant; tags: His-tag (pET21b); chain copies: 4; label: 5'-32P (T4 PNK); single strand
[5] = biological target: T2, SeSSB (single-stranded DNA-binding …); test: EMSA; 37 C, 40 mM Tris-HCl pH 7.5, 50 mM NaCl; protein at 50% bound; dA EMSA: 20 mM Tris-HCl pH 8.0, 100 mM NaCl, 25 C, 30 min, 1.7 nM DNA; dT35 EMSA: 40 mM Tris-HCl pH 7.5, 50 mM NaCl, 37 C, 60 min, 30 fmol/uL DNA; 8% native PAGE in TBE; conditions: protein: recombinant; tags: His-tag (pET21b); chain copies: 4; label: biotin (5' per Methods 4.5; 3' per Results 2.5); single strand
[6] = biological target: the molecule itself; test: SEC; purified SeSSB (5 mg/mL) on a Superdex 200 prep-grade column in 100 mM NaCl, 100 mM MES, pH 6.5; calibrated with standard proteins; native mass estimated 76641 Da; tetramer

O=C1c2c(O)cc(O)cc2O[C@H](c2ccc(O)c(O)c2)[C@H]1O [taxifolin]
IC50 [1]: 98 ± 12 µM

B1: dA55 (ssDNA)
DNA: AAAAAAAAAAAAAAAAAAAAAAAAAAAAAAAAAAAAAAAAAAAAAAAAAAAAAAA
binding result [2]: binds

AAAAAAAAAAAAAAAAAAAAAAAAAAAAAAAAAAA (ssDNA) [dA35]
binding result [3]: binds

AAAAAAAAAAAAAAAAAAAAAAAAAAAAAAAAAAAAAAAAAAAAA (ssDNA) [dA45]
binding result [4]: binds

TTTTTTTTTTTTTTTTTTTTTTTTTTTTTTTTTTT (ssDNA) [dT35]
Kd [5]: 0.23 ± 0.02 µM

B2: Single-stranded DNA-binding protein (SSB) from Salmonella enterica serovar Typhimurium LT2 (natural protein, UniProt P0A2F6 1-176, looked up)
chain: MASRGVNKVILVGNLGQDPEVRYMPSGGAVANLTLATSESWRDKQTGEMKEQTEWHRVVMFGKLAEVAGEYLRKGSQVYIEGQLRTRKWTDQSGQERYTTEINVPQIGGVMQMLGGRQGGGAPAGGQQQGGWGQPQQPQQPQGGNQFSGGAQSRPQQSAPAPSNEPPMDFDDDIPF
notes: SSB (STM_4256) of Salmonella enterica serovar Typhimurium LT2; monomer of 176 amino acid residues, ~19 kDa; residues 1-115 ordered and 116-176 disordered in the crystal; No removal of the tag is described; also called SeSSB; S. enterica SSB
stoichiometry N [6]: 4

AAAAAAAAAAAAAAAAAAAAAAAAAAAAAAAAAAAAAAAA (ssDNA) [dA40]
binding result [3]: binds

AAAAAAAAAAAAAAAAAAAAAAAAAAAAAAAAAAAAAAAAAAAAAAAAAA (ssDNA) [dA50]
binding result [2]: binds
